From patent US20190071490A1 (BETH ISRAEL DEACONESS MEDICAL CENTER, published 2019) come the findings set out here.

A word on the Kd: it is the constant that tells how readily two partners part at equilibrium.

The target in assay [1] is T1, human α-CGRP 1-37 (WT) (human, C-terminal amide; N-terminal biotin when captured on the SA chip; 125I-labelled in the radioligand assay).
T1 construct: also called α-human
T1 peptide: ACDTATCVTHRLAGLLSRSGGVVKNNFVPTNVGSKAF
The experiment in a line: Biacore, 37°C, Fab over CGRP on SA chip. In a few lines: (§1)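 Fab analyte flowed over N-biotinylated CGRP captured at low density on a streptavidin chip in HBS-EP (pH 7.4), 1-min injections at 100 μL/min, at least 10 min dissociation.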
(In SPR one partner is held on a chip, and binding of the other changes the refractive index at the surface.)

The target in assay [2] is T2, rat α-CGRP (1-37) (rat, C-terminal amide; N-terminal biotin when captured on the SA chip).
T2 construct: also called rat α (1-37); α-rat
T2 peptide: T1 peptide with A1S, D3N, N25D, K35E
The experiment in a line: Biacore, 37°C, Fab over CGRP on SA chip. In a few lines:
as §1

Assay [3] addresses T1, human α-CGRP 1-37 (WT). The experiment in a line: Biacore, 25°C, Fab over N-biotinylated CGRP on SA chip, high-resolution two-part experiment. The procedure: (§2) Biacore assay for affinity determination. […] All Biacore assays were conducted in HBS-EP running buffer (10 mM HEPES pH 7.4, 150 mM NaCl, 3 mM EDTA, 0.005% v/v polysorbate P20). CGRP surfaces were prepared by diluting the N-biotinylated CGRP to a concentration of less than 0.001 mg/mL into HBS-EP buffer and injecting it across the SA sensor chip using variable contact times. […] Samples were typically injected for 1 minute at 100 μL/min and dissociation times of at least 10 minutes were allowed. […] An entire titration series (typically generated in duplicate) was fit globally to a 1:1 Langmuir binding model using the BIAevaluation program. This returned a unique pair of association and dissociation kinetic rate constants (respectively, kₒₙ and koff) for each binding interaction, whose ratio gave the equilibrium dissociation constant (KD=koff/kₒₙ).
(§3) High-resolution analysis of binding interactions with extremely slow off rates. […] The protocol described above was used with the following modifications.

The target in assay [4] is T2, rat α-CGRP (1-37). The assay is described as above. Here is the method:
as §2, §3

Another assay has as its target T3, human α-CGRP 19-36 (human).
T3 construct: also called 19-36-COOH; peptide fragment 19-36
T3 peptide: SGGVVKNNFVPTNVGSKA-OH
Kind of assay: Biacore competition: 50 nM G1 Fab with 10 µM peptide over human α-CGRP on chip. The text has this:
(§4) Y axis represents percentage of binding blocked by the presence of the competing peptide compared with the binding in the absence of the competing peptide.
(§5) All these peptides are amidated at the C-terminus.

For another assay, the target named is T4, Human amylin (1-37) (human, C-terminal amide).
T4 peptide: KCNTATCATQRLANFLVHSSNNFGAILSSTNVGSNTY
The description is as above.
From the text: as §4, §5

The target of assay [5] is T5, Human adrenomedullin (1-52) (human, C-terminal amide).
T5 peptide: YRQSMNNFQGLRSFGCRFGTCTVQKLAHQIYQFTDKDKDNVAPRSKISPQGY
Described as above.
From the text: as §4, §5

The next assay concerns the target T6, Human calcitonin (1-32) (human, C-terminal amide).
T6 peptide: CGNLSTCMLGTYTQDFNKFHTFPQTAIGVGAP
Described as above.
From the text: as §4, §5

The target in assay [6] is T1, human α-CGRP 1-37 (WT). Kind of assay: Biacore, 37°C, Fab over N-biotinylated CGRP on SA chip, high-resolution two-part experiment. Here is the method:
as §2, §3

The target in assay [7] is T2, rat α-CGRP (1-37). The assay is described as above. Here is the method: as §2, §3
Assay [8] concerns the target T1, human α-CGRP 1-37 (WT). The experiment in a line: Biacore, 37°C, high-resolution two-part experiment. Here is the method: as §2, §3
A further assay concerns the target T7, human α-CGRP 1-13-COOH (human, ends and bridges not checked).
T7 peptide: ACDTATCVTHRLA-OH
The experiment in a line: Biacore competition: 50 nM G1 Fab with 10 µM peptide over human α-CGRP on chip.

The target in the next assay is T8, human α-CGRP 1-19-COOH (human, ends and bridges not checked).
T8 peptide: ACDTATCVTHRLAGLLSRS-OH
The description is as above.

A further assay has as its target T9, rat β-CGRP (1-37) (rat, C-terminal amide; N-terminal biotin when captured on the SA chip).
T9 construct: also called rat β (1-37)
T9 peptide: T1 peptide with A1S, D3N, N25D
The experiment in a line: Biacore, 37°C, Fab over N-biotinylated CGRP on SA chip, 20-min dissociation. The procedure: as §2

In another assay the target is T10, human β-CGRP (1-37) (human, C-terminal amide; N-terminal biotin when captured on the SA chip).
T10 construct: also called human β (1-37)
T10 peptide: T1 peptide with D3N, V22M, N25S
The description is as above. The procedure: as §2

Positions count from the first letter of the chain named. Ends that are not written are not given here.

B1: antibody G1 Fab fragment (Fab, V domains shown)
VH: EVQLVESGGGLVQPGGSLRLSCAASGFTFSNYWISWVRQAPGKGLEWVAEIRSESDASATHYAEAVKGRFTISRDNAKNSLYLQMNSLRAEDTAVYYCLAYFDYGLAIQNYWGQGTLVTVSS
VL: EIVLTQSPATLSLSPGERATLSCKASKRVTTYVSWYQQKPGQAPRLLIYGASNRYLGIPARFSGSGSGTDFTLTISSLEPEDFAVYYCSQSYNYPYTFGQGTKLEIK
With B1, the Kd with human α-CGRP 1-37 (WT) [1] was determined as 0.063 nM; with rat α-CGRP (1-37) [2], 2.57 nM; in the assay with human α-CGRP 1-37 (WT) [3], 0.042 nM; in the assay with rat α-CGRP (1-37) [4] it was 1.22 nM; with human α-CGRP 1-37 (WT) [6] it was 0.063 nM; in the assay with rat α-CGRP (1-37) [7], 2.57 nM. For the same molecule, the Kd is 0.06 nM with human α-CGRP 1-37 (WT) [8], 0.152 nM with rat β-CGRP (1-37) and 0.155 nM in the assay with human β-CGRP (1-37). Further, the binding result (with human α-CGRP 19-36; in the assay with Human amylin (1-37); in assay [5]; with Human calcitonin (1-32); with human α-CGRP 1-13-COOH; in the assay with human α-CGRP 1-19-COOH) was “no binding (tested: 10 µM peptide)” in each case.
